Test results taken from the supplement of paper PMC11246515.
± gives the standard deviation of the averaged measurements.

Test: total protein half-life in vivo (active degradation + dilution); higher = more stable protein
[1] = E. coli NCM3722 delta-hslV, growth: N-lim chemostat, doubling time 6 h
[2] = E. coli NCM3722 delta-lon, growth: N-lim chemostat, doubling time 6 h
[3] = E. coli NCM3722 delta-smpB, growth: N-lim chemostat, doubling time 6 h
[4] = wild type E. coli NCM3722, growth: C-lim chemostat, doubling time 3 h
[5] = wild type E. coli NCM3722, growth: C-lim chemostat, doubling time 6 h
[6] = wild type E. coli NCM3722, growth: C-lim chemostat, doubling time 12 h
[7] = wild type E. coli NCM3722, growth: N-lim chemostat, doubling time 6 h
[8] = wild type E. coli NCM3722, growth: N-lim chemostat, doubling time 12 h
[9] = wild type E. coli NCM3722, growth: P-lim chemostat, doubling time 6 h
[10] = wild type E. coli NCM3722, growth: P-lim chemostat, doubling time 12 h
[11] = E. coli NCM3722 delta-clpP delta-lon delta-hslV, growth: N-lim chemostat, doubling time 6 h
[12] = E. coli NCM3722 delta-clpP, growth: N-lim chemostat, doubling time 6 h

Sequence	total protein half-life in vivo [1] [h]	total protein half-life in vivo [2] [h]	total protein half-life in vivo [3] [h]	total protein half-life in vivo [4] [h]	total protein half-life in vivo [5] [h]	total protein half-life in vivo [6] [h]	total protein half-life in vivo [7] [h]	total protein half-life in vivo [8] [h]	total protein half-life in vivo [9] [h]	total protein half-life in vivo [10] [h]	total protein half-life in vivo [11] [h]	total protein half-life in vivo [12] [h]
MPKLRLIGLTLLALSATAVSHAEETRYVSDELNTWVRSGPGDHYRLVGTVNAGEEVTLLQTDANTNYAQVKDSSGRTAWIPLKQLSTEPSLRSRVPDLENQVKTLTDKLTNIDNTWNQRTAEMQQKVAQSDSVINGLKEENQKLKNELIVAQKKVDAASVQLDDKQRTIIMQWFMYGGGVLGLGLLLGLVLPHLIPSRKRKDRWMN [P0ADT8]	6.56 ± 0.2	6.43 ± 0.12	5.94 ± 0.49	3.03 ± 0.052	5.84 ± 0.24	11.1 ± 0.11	5.83 ± 0.15	11.8 ± 0.99	5.51 ± 0.2	12.5 ± 0.39		
MRYPVTLTPAPEGGYMVSFVDIPEALTQGETVAEAMEAAKDALLTAFDFYFEDNELIPLPSPLNSHDHFIEVPLSVASKVLLLNAFLQSEITQQELARRIGKPKQEITRLFNLHHATKIDAVQLAAKALGKELSLVMV									1.45	3.2 ± 0.94		
MSKKIAVLITDEFEDSEFTSPADEFRKAGHEVITIEKQAGKTVKGKKGEASVTIDKSIDEVTPAEFDALLLPGGHSPDYLRGDNRFVTFTRDFVNSGKPVFAICHGPQLLISADVIRGRKLTAVKPIIIDVKNAGAEFYDQEVVVDKDQLVTSRTPDDLPAFNREALRLLGA	5.59 ± 1.4	5.74 ± 0.21	4.51 ± 0.087	3.22 ± 0.3	5.32 ± 0.083	9.27 ± 0.35	4.72 ± 0.18	7.76 ± 0.18	5.12 ± 0.29	10.6 ± 1.1	6.07 ± 1.3	4.34 ± 0.18
MSKQLTAQAPVDPIVLGKMGSSYGIRGWLRVFSSTEDAESIFDYQPWFIQKAGQWQQVQLESWKHHNQDMIIKLKGVDDRDAANLLTNCEIVVDSSQLPQLEEGDYYWKDLMGCQVVTTEGYDLGKVVDMMETGSNDVLVIKANLKDAFGIKERLVPFLDGQVIKKVDLTTRSIEVDWDPGF [P0A7X6]	3.38	4.04 ± 1.9	3.79	2.65 ± 0.43	4.72 ± 0.19	7.94 ± 0.8		5.22		3.98 ± 0.42	5.56 ± 0.28	3.21
MTEAQRHQILLEMLAQLGFVTVEKVVERLGISPATARRDINKLDESGKLKKVRNGAEAITQQRPRWTPMNLHQAQNHDEKVRIAKAASQLVNPGESVVINCGSTAFLLGREMCGKPVQIITNYLPLANYLIDQEHDSVIIMGGQYNKSQSITLSPQGSENSLYAGHWMFTSGKGLTAEGLYKTDMLTAMAEQKMLSVVGKLVVLVDSSKIGERAGMLFSRADQIDMLITGKNANPEILQQLEAQGVSILRV [P0A9W0]	6.01 ± 0.41	5.66 ± 0.8	5.95 ± 0.36	3.08 ± 0.11	6 ± 0.48	10.6 ± 1.7	5.68 ± 0.2	10.9 ± 0.72	6.75 ± 1.5	13.3 ± 0.25	5.74 ± 0.06	5.84 ± 0.28
MVRRLTSPRLEFEAAAIYEYPEHLRSFLNDLPTRPGVYLFHGESDTMPLYIGKSVNIRSRVLSHLRTPDEAAMLRQSRRISWICTAGEIGALLLEARLIKEQQPLFNKRLRRNRQLCALQLNEKRVDVVYAKEVDFSRAPNLFGLFANRRAALQALQTIADEQKLCYGLLGLEPLSRGRACFRSALKRCAGACCGKESHEEHALRLRQSLERLRVVCWPWQGAVALKEQHPEMTQYHIIQNWLWLGAVNSLEEATTLIRTPAGFDHDGYKILCKPLLSGNYEITELDPANDQRAS	1.43		0.89	1.06		1.93	1.6 ± 0.079		1.28		5.53 ± 1.1	
MAHPPRLNDDKPVIWTVSVTRLFELFRDISLEFDHLANITPIQLGFEKAVTYIRKKLANERCDAIIAAGSNGAYLKSRLSVPVILIKPSGYDVLQALAKAGKLTSSIGVVTYQETIPALVAFQKTFNLRLDQRSYITEEDARGQINELKANGTEAVVGAGLITDLAEEAGMTGIFIYSAATVRQAFSDALDMTRMSLRHNTHDATRNALRTRYVLGDMLGQSPQMEQVRQTILLYARSSAAVLIEGETGTGKELAAQAIHREYFARHDARQGKKSHPFVAVNCGAIAESLLEAELFGYEEGAFTGSRRGGRAGLFEIAHGGTLFLDEIGEMPLPLQTRLLRVLEEKEVTRVGGHQPVPVDVRVISATHCNLEEDMQQGRFRRDLFYRLSILRLQLPPLRERVADILPLAESFLKVSLAALSAPFSAALRQGLQASETVLLHYDWPGNIRELRNMMERLALFLSVEPTPDLTPQFMQLLLPELARESAKTPAPRLLTPQQALEKFNGDKTAAANYLGISRTTFWRRLKS		2.71	2.277 ± 0.021	2.18 ± 0.55	4.02 ± 0.54	5.89 ± 0.42	2.53 ± 0.25	4.31			4.26 ± 0.052	2.4 ± 0.6
MKRLIVGISGASGAIYGVRLLQVLRDVTDIETHLVMSQAARQTLSLETDFSLREVQALADVTHDARDIAASISSGSFQTLGMVILPCSIKTLSGIVHSYTDGLLTRAADVVLKERRPLVLCVRETPLHLGHLRLMTQAAEIGAVIMPPVPAFYHRPQSLDDVINQTVNRVLDQFAITLPEDLFARWQGA [P0AG03]	4.3 ± 0.56	4.77 ± 0.86	4.678 ± 0.041	3.22 ± 0.35	6.52 ± 0.94	11.2 ± 1.5	4.09 ± 0.35	7.54 ± 1	5.53 ± 0.22	11.9 ± 0.56	5.38 ± 0.31	4.35 ± 0.49
